Key:
[1] = system: tumor cells (monocyte cytotoxicity assay); experiment: Effect of indomethacin on tumoricidal function of cancer patients' monocytes (Example 15); conditions: for regulation of tumoricidal function by an indomethacin-sensitive function: indomethacin up to 5 ng/ml
[2] = system: mouse hybridoma cell line HYB #6-1; experiment: Antiproliferative bioassay in mouse hybridoma cells (Example 4); format: cell-based; conditions: procedure of Example 4
Description: The bioassay is carried out as follows. […] Hybridoma cell samples are specifically quantitated. Using a hemocytometer the calls in a 100 μl sample are counted. The cells are concentrated by centrifugation and then cell concentration is adjusted to 1,000 cells/ml (twice the final desired concentration) by addition of appropriate volumes of fresh media. […] After 96 hours, each well is sampled at 100 μl×3 and placed in a 96 well plate. (A blank of 100 μl of medium without cells is included.) Cell density is determined using a PROMEGA CellTiter 96 kit. Cell concentration is measured by reading absorbance at 595 nm (650 nm reference) and recorded by ELISA plate reader. For each assay, a standard curve of cell concentration is prepared. Cultured cells in the log phase of growth are sampled, counted, concentrated and resuspended in serial dilutions. Each dilution is sampled at 100 μl×3 and placed in a 96 well plate. The standard curve is constructed by plotting cell density versus “net” OD at 595 nm after subtraction of zero cell blanks and OD at 650 nm. Cell density of unknown samples is determined by interpolation.

[3] = system: lymphocytes; experiment: Stimulation of lymphocyte DNA synthesis; format: cell-based, human; conditions: optimal stimulating concentration of PHA
Description: These indicators of immune function also can be modulated in cancer patients who are treated with different biological response modifying agents such as interferon or interleukin-2.
1) Stimulation of Lymphocyte DNA Synthesis: Comparison with an Optimal Stimulating Concentration of Phytohemagglutinin (PHA)

[4] = system: tumor cells (monocyte cytotoxicity assay); experiment: Tumor cytotoxicity of peripheral blood monocytes from patients with gynecological disease (Example 14); conditions: Monocyte/Tumor Cell ratio 15/1; 7 patients (3 benign, 4 malignant); composition 1:10 of batch 222, gamma interferon 100 U/ml, interleukin-12 500 U/ml, monocyte-CSF 500 U/ml
Description: More particularly, the patient population consisted of 7 patients, 3 with benign disease and 4 with malignant disease (2 ovarian cancers, 1 endometrial cancer, and 1 cervical cancer). Samples were removed from patients at the time of surgical procedure.

[5] = system: tumor cells (monocyte cytotoxicity assay); experiment: Tumor cytotoxicity of peritoneal macrophages from patients with gynecological disease (Example 14); format: cell-based, human; conditions: Monocyte/Tumor Cell ratio 15/1; 7 patients (3 benign, 4 malignant); composition 1:10 of batch 222, gamma interferon 100 U/ml, interleukin-12 500 U/ml, monocyte-CSF 500 U/ml
Text: Immunother 32:55-61, 1990.

CCCCCCCCCCCCCC(=O)O[C@@H]1[C@@H](C)[C@@]2(O)[C@@H](C=C(CO)C[C@]3(O)C(=O)C(C)=C[C@@H]23)[C@@H]2C(C)(C)[C@]12OC(C)=O [Phorbol Ester (PNA)]
regulation of tumoricidal function by an indomethacin-sensitive function [1]: not regulated by an indomethacinsensitive function

N.O [sample (2), NH3.H2O]
anti-proliferative activity, in words [2]: Neither sample (1) nor sample (2) had any detectable anti-proliferative effect

Phytohemagglutinin [PHA]
Stimulation of lymphocyte DNA synthesis [3]: 125,817 Counts per Minute

C[C@H](CCC(=O)NCCS(=O)(=O)O)[C@H]1CC[C@H]2[C@@H]3[C@H](O)C[C@@H]4C[C@H](O)CC[C@]4(C)[C@H]3C[C@H](O)[C@]12C [sample (1), taurocholic acid]
anti-proliferative activity, in words [2]: Neither sample (1) nor sample (2) had any detectable anti-proliferative effect

granulocyte macrophage colony stimulating factor [GM-CSF]
regulation of tumoricidal function by an indomethacin-sensitive function [1]: regulated by an indomethacin-sensitive function

gamma interferon [IFN-γ]
regulation of tumoricidal function by an indomethacin-sensitive function [1]: regulated by an indomethacin-sensitive function

interleukin-12 [IL-12]
% Tumor Cytotoxicity (+/−S.E.) Peripheral Blood [4]: 26.0 ± 4% | regulation of tumoricidal function by an indomethacin-sensitive function [1]: not regulated by an indomethacinsensitive function | % Tumor Cytotoxicity (+/−S.E.) Peritoneal Macrophage [5]: 8.5 ± 2%

B1: gamma interferon (protein, UniProt P01579 24-161, looked up)
Interferon gamma: QDPYVKEAENLKKYFNAGHSDVADNGTLFLGILKNWKEESDRKIMQSQIVSFYFKLFKNFKDDQSIQKSVETIKEDMNVKFFNSNKKKRDDFEKLTNYSVTDLNVQRKAIHELIQVMAELSPAAKTGKRKRSQMLFRG
% Tumor Cytotoxicity (+/−S.E.) Peripheral Blood [4]: 18.3 ± 2% | % Tumor Cytotoxicity (+/−S.E.) Peritoneal Macrophage [5]: 9.5 ± 1%

B2: monocyte-CSF (protein, UniProt P09603 33-554, looked up)
Macrophage colony-stimulating …: EEVSEYCSHMIGSGHLQSLQRLIDSQMETSCQITFEFVDQEQLKDPVCYLKKAFLLVQDIMEDTMRFRDNTPNAIAIVQLQELSLRLKSCFTKDYEEHDKACVRTFYETPLQLLEKVKNVFNETKNLLDKDWNIFSKNCNNSFAECSSQDVVTKPDCNCLYPKAIPSSDPASVSPHQPLAPSMAPVAGLTWEDSEGTEGSSLLPGEQPLHTVDPGSAKQRPPRSTCQSFEPPETPVVKDSTIGGSPQPRPSVGAFNPGMEDILDSAMGTNWVPEEASGEASEIPVPQGTELSPSRPGGGSMQTEPARPSNFLSASSPLPASAKGQQPADVTGTALPRVGPVRPTGQDWNHTPQKTDHPSALLRDPPEPGSPRISSLRPQGLSNPSTLSAQPQLSRSHSSGSVLPLGELEGRRSTRDRRSPAEPEGGPASEGAARPLPRFNSVPLTDTGHERQSEGSFSPQLQESVFHLLVPSVILVLLAVGGLLFYRWRRRSHQEPQRADSPLEQPEGSPLTQDDRQVELPV
% Tumor Cytotoxicity (+/−S.E.) Peripheral Blood [4]: 16.0 ± 2% | regulation of tumoricidal function by an indomethacin-sensitive function [1]: regulated by an indomethacin-sensitive function | % cytotoxicity ([1]; peripheral blood monocytes from cancer patients, activator alone or with indomethacin (up to 5 ng/ml) added simultaneously): 14.1 ± 3% | % Tumor Cytotoxicity (+/−S.E.) Peritoneal Macrophage [5]: 7.0 ± 2%

Source: patent publication US20080279957A1, “Immunomodulating compositions from bile” (Lorus Therapeutics Inc., priority 2000, published 2008)
